Data taken from the supplement of paper PMC10567573.
± gives the standard deviation.

Assay: protein stability index of a GFP-peptide fusion (GPS, HEK-293T) (PSI 1-6); higher = more stable
Details: c terminus: a fixed tail appended
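Note: 24-mer peptide tiles fused after GFP, lentivirally expressed, FACS-sorted into six equal bins by GFP/DsRed ratio, decoded by Illumina sequencing, PSI is the read-weighted mean bin number.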

Sequence | protein stability index (treatment: DMSO) | protein stability index (treatment: MLN4924 1 uM, 8 h)
PLSSQPQAIVTEDKTDISSGRARQ [MLH1] | 4.99 ± 0.14 | 5.15 ± 0.23
PLVEKKRRARINESLQELRLLLAG [HES6] | 2.63 ± 0.6 | 2.75 ± 0.73
PLVLTEVLFNEKIREQIKKYRRHF [EIF5] | 2.31 ± 0.35 | 2.28 ± 0.33
PMKKNNNLYSWDDFMELGRSIPDT [ACSBG2] | 3.74 ± 0.24 | 3.77 ± 0.3
PMVLMIIVMCVQIKCFHEIITIGY [CDS2] | 3.01 ± 0.43 | 3.14 ± 0.66
PNALIASLALGDLIYVVIDLPINV [EDNRA] | 3.12 ± 0.42 | 3.03 ± 0.35
PPENSDSGTGKKEKEKKNRKGKDK [EIF5] | 5.58 ± 0.21 | 5.48 ± 0.28
PPLSGALASITETIQVHRRYWRSL [HDAC6] | 2.99 ± 0.33 | 3.15 ± 0.4
PPPLPNHKYNTTSTSYSPLASLPL [PLAGL1] | 3.29 ± 0.17 | 3.33 ± 0.091
PPPPPLPDPTPPEPEEEILGSDDE [SRPK2] | 5.51 ± 0.23 | 5.63 ± 0.19
PPRREPLPSRRDVYLSPRDDGYST [RBMX] | 4.09 ± 0.16 | 4.23 ± 0.29
PSGSSGSLSTSSSSSPPGTPSPAD [CEBPB] | 5.53 ± 0.31 | 5.46 ± 0.069
PSPPAAPSVADNLLASSDAALSAS [SERTAD1] | 5.25 ± 0.21 | 5.25 ± 0.094
PSSFDPSMLLQRFSVAPHETQTQR [RNF180] | 4.12 ± 0.14 | 3.95 ± 0.13
PTKADTEKWAEGGGHSRERADEPQ [CHGB] | 5.46 ± 0.32 | 5.36 ± 0.19
PTTGRVYESDSSNHCMLSPSSSGH [C18orf25] | 4.24 ± 0.24 | 4.52 ± 0.052
PTYKGLLMSLQNQLKESKSKIDAL [CEP70] | 2.45 ± 0.22 | 2.86 ± 0.19
PVDSVLFYAITTLHNLLLHQEGAK [CTNNB1] | 2.81 ± 0.48 | 2.71 ± 0.17
PVHIHPAFARQAAQEPSAVPRAGP [FOXJ1] | 4.45 ± 0.088 | 4.22 ± 0.15
PVSASRSSLDLSYYPTSSSTSFMS [EMD] | 3.38 ± 0.21 | 3.38 ± 0.13
QARLEEQQRLAHLEDKLRLLAQAR [LRRC45] | 3.37 ± 0.61 | 3.32 ± 0.35
QARRQQVKQYLSTTLGPKLASQAL [TFE3] | 2.95 ± 0.51 | 2.9 ± 0.23

Sequence | protein stability index (treatment: DMSO) | protein stability index (treatment: MLN4924 1 uM, 8 h)
QASVSCALEALEPFWEVLVRSTET [HDAC6] | 2.64 ± 0.57 | 2.46 ± 1.1
QDRFRIELSEEGAEGRVVGRKDIT [MOSPD3] | 4.91 ± 0.23 | 5.1 ± 0.31
QEIATYRRLLEGEDAHLTQYKKEP [KRT17] | 4.68 ± 0.19 | 4.82 ± 0.18
QETPYLVKLPLPAERVTLADFKGV [DVL3] | 3.25 ± 0.3 | 3.49 ± 0.18
QGEAFQRALESELQQLRARLQGLE [PBXIP1] | 3.1 ± 0.17 | 3.23 ± 0.28
QGEQLEVPERLLVVLDMEEGTLGY [SPSB2] | 2.86 ± 0.34 | 3.06 ± 0.24
QGFSYSKSNGRGGSQAGGSGSAGQ [MYOZ1] | 4.76 ± 0.18 | 5.02 ± 0.16
QHKTCMLNATSKFMEFYQDVKDWW [EDNRA] | 2.6 ± 0.74 | 2.89 ± 0.36
QIRDWRGGRLENQKPRGLEGGVLR [ZSWIM9] | 3.3 ± 0.54 | 3.57 ± 0.15
QIVQLTQQVDTNISVILPTVHEVD [DENND6A] | 3.07 ± 0.35 | 3.3 ± 0.37
QKLQDVLHEALQDYEAGQHMEDPR [ESRRG] | 4.72 ± 0.34 | 5.13 ± 0.26
QKLYVRLFQRKLSWIKMTKLEYEE [FAN1] | 2.63 ± 1.1 | 2.44 ± 0.6
QLLFVIFLLLYLFTLGTNAIIIST [OR10K2] | 3.18 ± 0.37 | 3.19 ± 0.23
QLQDFNIPQAGGWGPWGPWGDCSR [ADAMTS4] | 2.56 ± 0.59 | 3 ± 0.8
QLQELLHHCDDHLSLYQLSLERGT [RSAD1] | 2.34 ± 0.24 | 2.58 ± 0.34
QLSAPHCKKLSLELGGKNPAIIFE [ALDH8A1] | 2.8 ± 0.26 | 2.9 ± 0.43
QLVLAYDYSREVNTTEELEALITD [FEM1A] | 3.53 ± 0.28 | 3.8 ± 0.34
QMAEKNRRDAETWFLSKTEELNKE [KRT16] | 5.02 ± 0.57 | 4.81 ± 0.35
QNECQVLKLLNHPNVIEYYENFLE [NEK8] | 2.56 ± 0.12 | 2.67 ± 0.27
QQPSKHRTDEELQPPTTTVARSGT [PLK2] | 5.47 ± 0.15 | 5.27 ± 0.1
QQREKLSLIRKHAQTFIALCATDF [CCND2] | 2.25 ± 0.22 | 2.44 ± 0.13
QRDVGWAALLILFAASLLTVFAWL [C2CD2L] | 2.94 ± 0.34 | 3.05 ± 0.56

Sequence | protein stability index (treatment: DMSO) | protein stability index (treatment: MLN4924 1 uM, 8 h)
QSIEYAGQQDQVKLHDFFSYLMDH [PPEF2] | 2.94 ± 0.26 | 2.92 ± 0.49
QTGEWQNIAIMTEEPELSPAYLIS [GFOD1] | 3.05 ± 0.17 | 3.25 ± 0.22
QVESRWGYSGTSDRIRFTVNRRIS [BTBD1] | 3.38 ± 0.23 | 3.53 ± 0.37
QVITQTGVPGQPLNFKAEPESETS [PTPRD] | 5.18 ± 0.24 | 5.31 ± 0.25
QVRIRYLGERRAEPHSLLHLSRLC [SPSB2] | 2.34 ± 0.2 | 2.22 ± 0.22
QVVTVHLQTSLENGTRVQEEPELV [FKBP8] | 4.18 ± 0.15 | 4.37 ± 0.31
QWGTVCDDDFSIHAAHVVCRELGY [LOXL2] | 2.47 ± 0.36 | 2.38 ± 0.39
QYSVEGGKETLTPSELRDLVTQQL [S100A14] | 4.59 ± 0.23 | 4.55 ± 0.13
QYVYIAVMDYLPISSTSTKRTYWP [PLD5] | 3.01 ± 0.59 | 2.74 ± 0.29
QYWLDGKIIAVGVIDILPNCVSSV [ATE1] | 2.93 ± 0.54 | 2.95 ± 0.66
QYYRWLNYGGVIKNYFQHREFSFT [PRIM1] | 2.34 ± 0.64 | 1.98 ± 0.47
RAEIENLHRTFDPHFLRVPCWKIT [MOG] | 2.27 ± 0.22 | 2.42 ± 0.22
RAFAQIGPARSGFRLETLAGLRSR [MIR22HG] | 3.23 ± 0.53 | 3.2 ± 0.3
RALATSNARAQQRAAAQQRRSFLN [GNAS] | 4.02 ± 0.15 | 4.3 ± 0.13
RALRKMVSNMSGPSGEEEAKVGPG [CBY2] | 4.82 ± 0.23 | 4.87 ± 0.25
RAPAEKPRGARCSNGFPERDPPRP [GCH1] | 4.2 ± 0.3 | 4.43 ± 0.17
RDANGWTLLHFSAARGKERCVRVF [ASB7] | 2.29 ± 0.29 | 2.43 ± 0.43
RDILVEADGAWVVKMFYSFQDKRN [STK38L] | 2.07 ± 0.29 | 2.3 ± 0.4
RDRNLLQEDKALWEEEKALWVEER [CCDC70] | 5.007 ± 0.024 | 5.04 ± 0.28
RDSTARRPRPQGRSVSEPRDQHPQ [RTN2] | 5.305 ± 0.037 | 5.23 ± 0.098
RDYAPPSRGYAYRDNGHSNRDEHS [RBMY1A1] | 4.59 ± 0.11 | 4.57 ± 0.36
